In patent US5512203A, “Cutinase cleaning compositions” (Genencor International, Inc., priority 1994, dated 1996):

Tests used:
Type in all cases: biochemical
[1] = Effect of surfactants on hydrolase activity of cutinase; conditions: for Compatibility of surfactant with the cutinase: at the concentrations tested
Description: This example measures the effect of surfactants (detergents) on the hydrolytic activity of cutinase. Specifically, in this example, an aqueous solution was prepared so as to contain 120 nanomoles per liter of cutinase (isolated in a substantially pure form from P. mendocina, ATCC 53552, described in U.S. Ser. No. 932,959 filed Nov. 19, 1986 and incorporated herein by reference); and 0.1 moles/liter of Tris Tris(hydroxymethyl)aminomethane! buffer maintained at pH 8.0 and 25° C. In some cases, surfactant sodium dodecyl sulfate (SDS) and/or Triton X-100™ (octoxynol), available from Rohn & Haas, Philadelphia, Pa.! was then added in the amount specified in Table 4 below. In this example, the enzymatic activity of the cutinase was measured in these solutions using the amount of p-nitrophenol generated from the p-nitrophenylbutyrate substrate as measured by following the absorbance of p-nitrophenol at 410 nm. The enzymatic activity of the cutinase under the above conditions and in the absence of surfactant is arbitrarily assigned a value of 100 percent and enzymatic activity of the other test solutions are reported as a percentage of the standard.

[2] = Cutinase activity after 28 minutes with proteases, pH stat hydrolysis of trioctanoin; conditions: 2 μg/ml cutinase, pH 10, 37° C.
Excerpt: B. In part B of this example, the cutinase employed was the same as in part A above whereas the protease employed was either Alcalase™ (an alkaline protease available from Novo Industries, Copenhagen, Denmark), a mixture of Alcalase™ and Savinase™ (an alkaline protease available from Novo Industries, Copenhagen, Denmark), or a mixture of Savinase™ and Esperase™ (a protease available from Novo Industries, Copenhagen, Denmark).
In this example, aqueous test solutions containing cutinase contained 2 μg/ml of cutinase and the amount of protease specified in Table 2 below. The solutions were incubated at 37° C. for 28 minutes at pH 10 and the enzymatic activity of cutinase was periodically measured in a pH stat by the hydrolysis of trioctanoin in a 0.5 percent trioctanoin and a 0.05 percent sodium dodecyl sulfate emulsion. The measured value was correlated against a standard, i.e., an aqueous solution containing cutinase but no protease. Diminishment in the enzymatic activity of the cutinase in the test solutions as compared to the standard is attributed to degradation of the cutinase by the protease.

[3] = pH stability of bacterial cutinase, half-life at 50° C., hydrolysis of trioctanoin in polyvinyl alcohol emulsions
Description: In this example the half-life of the same cutinase used in Example 1 above was measured at 50° C. at various pHs. Specifically, cutinase was introduced into a 0.1M sodium phosphate buffer at the pH specified below and the activity was measured by hydrolysis of trioctanoin in polyvinyl alcohol emulsions. The time required for the activity to diminish to 1/2 of its initial value is taken as the half-life at that particular pH.

[4] = Stability of cutinase against proteases, hydrolysis of p-nitrophenyl butyrate; conditions: for Cutinase activity after time: pH 10, 37° C.
Description: A. In part A of this example, the cutinase employed was that cutinase isolated in a substantially pure form from P. mendocina, ATCC 53552, described in U.S. Ser. No. 932,959 filed Nov. 19, 1986 and incorporated herein by reference and the protease employed was either Maxacal™ (a substilisin protease available from Gist-Brocade, N.V., Delft, Holland) or Esperase™ (a protease available from Novo Industries, Copenhagen, Denmark).
In this example aqueous test solutions containing 42 μg/ml of cutinase and either 35 μg/ml (Maxacal™) or 64 μg/ml (Esperase™) of protease were prepared. The solutions were buffered to pH 10 with 0.1M sodium phosphate. The solutions were incubated at 37° C. and the enzymatic activity of cutinase was periodically monitored by the hydrolysis of a model cutinase substrate p-nitrophenyl butyrate as measured by the absorbance change at 410 nm in 100 mM Tris buffer containing 0.1% Triton X-100 at pH 8. This value correlated against a standard, i.e., an aqueous solution containing cutinase but no protease. Diminishment in the enzymatic activity of the cutinase in the test solutions as compared to the standard is attributed to degradation of the cutinase by the protease.

[5] = Stability of cutinase to oxidants (hydrogen peroxide); conditions: for Percent Cutinase Activity: pH 8.4, 25° C., two hours
Description: Specifically, in this example, an aqueous solution of 0.5 mg/ml of cutinase (isolated in a substantially pure form from P. mendocina, ATCC 53552, described in U.S. Ser. No. 932,959 filed Nov. 19, 1986 and incorporated herein by reference) containing 0.1M sodium phosphate buffer was incubated in varying amounts of hydrogen peroxide wherein the aqueous solution was maintained at pH 8.4 and at 25° C. for two hours. The enzymatic activity of the cutinase under the above conditions and in the absence of hydrogen peroxide is arbitrarily assigned a value of 100% and enzymatic activity of the other test solutions are reported as a percentage of the standard.

[6] = Removal of cutin-like stains from an insoluble support matrix, 3H-triolein hydrolysis; conditions: polyester swatches, 1 percent BSA
Description: The substrate was prepared by diluting 1 mCi of ^3 H-Triolein (0.5 mCi/ml, […]) into 17 ml isopropanol containing 421 mg of non-^3 H-Triolein. The final concentration was about 23-24 mg Triolein/ml. This was divided into 1 ml aliquots and stored.
Polyester cloth swatches cut into approximately 1/2 inch×1/2 inch squares were laid onto a glass plate. 3 μl of the above mixture was pipetted onto each swatch and allowed to air dry.
A solution comprising 1 percent fatty acid free bovine serum albumin (BSA), and 100 mM of a suitable buffer, preferably Tris (pH range 6 to 9) or glycine (pH range 8 to 11) was allowed to equilibrate to a fixed temperature (preferably 32° C.) in a shaking water bath. An aliquot of cutinase (0.25 to 1.5 μg/ml) was then added to 2.8 ml of the BSA solution, followed by the insertion of four of the cloth swatches, taking care to keep the swatches as separate as possible. The cutinase added was isolated from Fusarium solani pisi, Colletotrichum capsici, Pseudomonas mendocina or Pestalotia subcuticularia. The entire mixture was then allowed to shake in the constant temperature bath at 150 rpm for 15 minutes.
An aliquot of the liquor, preferably 20% of the entire volume was pipetted into a scintillation vial containing 10 ml of Ecolume™ scintillation fluid. After chilling, the scintillation vials were counted. […]

[7] = Cutinase activity against pH (FIG. 1)

CCCCCCCCCCCCOS(=O)(=O)[O-].[Na+] [sodium dodecyl sulfate, reference compound]
Compatibility of surfactant with the cutinase [1]: is not

octoxynol [Triton X-100, reference compound]
Compatibility of surfactant with the cutinase [1]: compatible with the cutinase

B1: cutinase: cutinase isolated in a substantially pure form from Pseudomonas mendocina ATCC 53552, amino acid sequence of SEQ ID NO:1 (protein)
chain: APLPDTPGAPFPAVANFDRSGPYTTSSQSEGPSCRIYRPRNLGQGGVRHPVILWGNGTGAGPSTYAGLLSHWASHGFVVAAAETSNAGTGREMLACLDYLVRENDTPYGTYSGKLNTGRVGTSGHSQGGGGSIMAGQDTRVRTTAPIQPYTLGLGHDSASQRRQQGPMFLMSGGGDTIAFPYLNAQPVYRRANVPVFWGERRYVSHFEPVGSGGAYRGPSTAWFRFQLMDDQDARATFYGAQCSLCTSLLWSVERRGL
Cutinase activity in the aqueous solution after 28 minutes ([2]; Alcalase 34.7 μg/ml): 420.3 units of octanoic acid released | Cutinase activity in the aqueous solution after 28 minutes ([2]; Alcalase/Savinase 17.7/20.0 μg/ml): 428.0 units of octanoic acid released | Cutinase activity in the aqueous solution after 28 minutes ([2]; Esperase/Savinase 15.0/13.0 μg/ml): 411.0 units of octanoic acid released | Cutinase activity in the aqueous solution after 28 minutes ([2]; no protease): 417.8 units of octanoic acid released | Stability of cutinase activity at pH ([3]; neutral and alkaline pHs, 50° C.): sufficiently stable | Half-life at 50° C. ([3]; pH 7, 0.1M sodium phosphate buffer): 30 h | Half-life at 50° C. ([3]; pH 8, 0.1M sodium phosphate buffer): 25 h | Half-life at 50° C. ([3]; pH 9, 0.1M sodium phosphate buffer): 12 h | Half-life at 50° C. ([3]; pH 10, 0.1M sodium phosphate buffer): 0.3 h | Cutinase activity after time ([4]; Esperase 64 μg/ml, 0 min): 1.73 absorbance change at 410 nm | Cutinase activity after time ([4]; Esperase 64 μg/ml, 5 min): 1.64 absorbance change at 410 nm | Cutinase activity after time ([4]; Esperase 64 μg/ml, 10 min): 1.59 absorbance change at 410 nm | Cutinase activity after time ([4]; Esperase 64 μg/ml, 15 min): 1.51 absorbance change at 410 nm | Cutinase activity after time ([4]; Esperase 64 μg/ml, 840 min): 0.456 absorbance change at 410 nm | Cutinase activity after time ([4]; Maxacal 35 μg/ml, 0 min): 1.68 absorbance change at 410 nm | Cutinase activity after time ([4]; Maxacal 35 μg/ml, 5 min): 1.58 absorbance change at 410 nm | Cutinase activity after time ([4]; Maxacal 35 μg/ml, 10 min): 1.72 absorbance change at 410 nm | Cutinase activity after time ([4]; Maxacal 35 μg/ml, 15 min): 1.66 absorbance change at 410 nm | Cutinase activity after time ([4]; Maxacal 35 μg/ml, 840 min): 0.134 absorbance change at 410 nm | Cutinase activity after time ([4]; Standard, no protease, 0 min, 42 μg/ml cutinase): 1.57 absorbance change at 410 nm | Cutinase activity after time ([4]; Standard, no protease, 5 min): 1.60 absorbance change at 410 nm | Cutinase activity after time ([4]; Standard, no protease, 10 min): 1.47 absorbance change at 410 nm | Cutinase activity after time ([4]; Standard, no protease, 15 min): 1.63 absorbance change at 410 nm | Cutinase activity after time ([4]; Standard, no protease, 840 min): 1.61 absorbance change at 410 nm | Stability in aqueous solution in the presence of a protease ([4]; results from A and B of Example 1, periods of time commonly encountered in cleaning use): stable | Stability of cutinase activity in the presence of an oxidant ([5]; hydrogen peroxide): sufficiently stable | Percent Cutinase Activity ([5]; hydrogen peroxide 0 ppm (standard assigned 100%)): 100% | Percent Cutinase Activity ([5]; hydrogen peroxide 100 ppm): 86% | Percent Cutinase Activity ([5]; hydrogen peroxide 200 ppm): 86% | Percent Cutinase Activity ([5]; hydrogen peroxide 500 ppm): 91% | Percent Cutinase Activity ([5]; hydrogen peroxide 1000 ppm): 95% | Sp. activity triolein hydrolysis [6]: 157,045 cnts./10 min./μg enzyme | Triolein hydrolysis ([6]; cutinase 0.25 to 1.5 μg/ml): 9,250 cnts./10 min. | pH at which cutinase activity reaches a maximum ([7]; FIG. 1): 7 | Share of maximum activity maintained ([7]; up to pH 11, FIG. 1): ≥ 80% | Percent Activity ([1]; Triton X-100 0, SDS 0 weight percent (standard assigned 100), pH 8.0, 25° C.): 100% | Percent Activity ([1]; Triton X-100 0, SDS 0.05 weight percent): 30% | Percent Activity ([1]; Triton X-100 0, SDS 0.1 weight percent): 23% | Percent Activity ([1]; Triton X-100 0, SDS 0.2 weight percent): 14% | Percent Activity ([1]; Triton X-100 0, SDS 0.4 weight percent): 6% | Percent Activity ([1]; Triton X-100 0.05, SDS 0.05 weight percent): 132% | Percent Activity ([1]; Triton X-100 0.1, SDS 0.1 weight percent): 130% | Percent Activity ([1]; Triton X-100 0.2, SDS 0 weight percent): 78% | Percent Activity ([1]; Triton X-100 0.2, SDS 0.05 weight percent): 125% | Percent Activity ([1]; Triton X-100 0.2, SDS 0.1 weight percent): 138% | Percent Activity ([1]; Triton X-100 0.2, SDS 0.2 weight percent): 98% | Percent Activity ([1]; Triton X-100 0.4, SDS 0 weight percent): 60% | Percent Activity ([1]; Triton X-100 0.4, SDS 0.4 weight percent): 78%
